How the values were obtained:
[1] = target: wildtype alpha-1-antitrypsin (A1AT)
[2] = target: T1, A1AT-M351V/L353T/M358V
T1 chain: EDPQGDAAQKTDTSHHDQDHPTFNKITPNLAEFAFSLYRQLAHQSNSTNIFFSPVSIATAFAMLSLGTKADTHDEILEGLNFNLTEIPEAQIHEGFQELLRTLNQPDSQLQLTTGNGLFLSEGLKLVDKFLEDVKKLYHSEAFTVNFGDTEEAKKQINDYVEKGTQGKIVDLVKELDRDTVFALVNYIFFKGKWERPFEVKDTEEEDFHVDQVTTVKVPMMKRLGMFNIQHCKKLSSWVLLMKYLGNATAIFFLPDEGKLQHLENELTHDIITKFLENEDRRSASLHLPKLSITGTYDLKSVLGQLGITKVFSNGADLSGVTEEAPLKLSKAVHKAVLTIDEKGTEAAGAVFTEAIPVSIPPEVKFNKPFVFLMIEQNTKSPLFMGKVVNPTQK

[3] = target: T2, A1AT-M351V/L353A/M358V
T2 chain: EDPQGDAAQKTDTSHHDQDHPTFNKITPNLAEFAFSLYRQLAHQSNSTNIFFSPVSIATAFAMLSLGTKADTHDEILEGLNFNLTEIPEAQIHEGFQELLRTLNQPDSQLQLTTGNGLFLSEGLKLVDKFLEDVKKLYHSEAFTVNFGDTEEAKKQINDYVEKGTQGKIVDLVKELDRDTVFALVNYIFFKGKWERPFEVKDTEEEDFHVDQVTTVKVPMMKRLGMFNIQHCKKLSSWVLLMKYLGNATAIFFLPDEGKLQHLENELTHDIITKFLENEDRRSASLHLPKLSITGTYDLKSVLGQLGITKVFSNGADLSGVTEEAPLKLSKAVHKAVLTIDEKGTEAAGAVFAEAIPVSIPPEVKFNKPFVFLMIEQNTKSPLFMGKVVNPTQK

[4] = target: T3, A1AT-M351V/L353S/M358V
T3 chain: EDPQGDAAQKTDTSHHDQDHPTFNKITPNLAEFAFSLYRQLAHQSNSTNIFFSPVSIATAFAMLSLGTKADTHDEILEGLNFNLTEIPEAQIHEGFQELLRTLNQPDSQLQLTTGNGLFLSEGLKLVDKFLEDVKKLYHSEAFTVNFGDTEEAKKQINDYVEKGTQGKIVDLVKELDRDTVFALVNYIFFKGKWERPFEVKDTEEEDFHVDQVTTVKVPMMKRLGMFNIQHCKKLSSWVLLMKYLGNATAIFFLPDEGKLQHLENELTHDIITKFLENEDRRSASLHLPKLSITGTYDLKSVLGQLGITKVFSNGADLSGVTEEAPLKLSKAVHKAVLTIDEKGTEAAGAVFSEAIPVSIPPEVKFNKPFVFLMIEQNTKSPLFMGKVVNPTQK

[5] = target: A1AT-M351V/M358V
[6] = target: A1AT-L353A
[7] = target: A1AT-M351V/L353A
[8] = target: A1AT-L353A/M358V

B1: MMP-9 (ProSpec, cat #enz-438) (protein)
chain: APRQRQSTLVLFPGDLRTNLTDRQLAEEYLYRYGYTRVAEMRGESKSLGPALLLLQKQLSLPETGELDSATLKAMRTPRCGVPDLGRFQTFEGDLKWHHHNITYWIQNYSEDLPRAVIDDAFARAFALWSAVTPLTFTRVYSRDADIVIQFGVAEHGDGYPFDGKDGLLAHAFPPGPGIQGDAHFDDDELWSLGKGVVVPTRFGNADGAACHFPFIFEGRSYSACTTDGRSDGLPWCSTTANYDTDDRFGFCPSERLYTQDGNADGKPCQFPFIFQGQSYSACTTDGRSDGYRWCATTANYDRDKLFGFCPTRADSTVMGGNSAGELCVFPFTFLGKEYSTCTSEGRGDGRLWCATTSNFDSDKKWGFCPDQGYSLFLVAAHEFGHALGLDHSSVPEALMYPMYRFTEGPPLHKDDVNGIRHLYGPRPEPEPRPPTTTTPQPTAPPTVCPTGPPTVHPSERPTAGPTGPPSAGPTGPPTAGPSTATTVPLSPVDDACNVNIFDAIAEIGNQLYLFKDGKYWRFSEGRGSRPQGPFLIADKWPALPRKLDSVFEERLSKKLFFFSGRQVWVYTGASVLGPRRLDKLGLGADVAQVTGALRSGRGKMLLFSGRRLWRFDVKAQMVDPRSASEVDRMFPGVPLDTHDVFQYREKAYFCQDRFYWRVSSRSELNQVDQVGYVTYDILQCPED
With B1 the cleaved (%) after MMP-9 treatment (SDS-PAGE) [1] was 89%, the non-cleaved (%) after MMP-9 treatment (SDS-PAGE) [1] was 11% and the cleaved (%) after MMP-9 treatment (SDS-PAGE) [2] was 0%. It also gave a non-cleaved (%) after MMP-9 treatment (SDS-PAGE) [2] of 100%, a cleaved (%) after MMP-9 treatment (SDS-PAGE) [3] of 6% and a non-cleaved (%) after MMP-9 treatment (SDS-PAGE) [3] of 94%. For the same protein, the cleaved (%) after MMP-9 treatment (SDS-PAGE) [4] was 0%, the non-cleaved (%) after MMP-9 treatment (SDS-PAGE) [4] was 100% and the cleaved (%) after MMP-9 treatment (SDS-PAGE) [5] was 25%. For the same protein, the non-cleaved (%) after MMP-9 treatment (SDS-PAGE) [5] was 75%.

B2: MMP-7 (ProSpec, cat #enz-271) (protein)
chain: YSLFPNSPKWTSKVVTYRIVSYTRDLPHITVDRLVSKALNMWGKEIPLHFRKVVWGTADIMIGFARGAHGDSYPFDGPGNTLAHAFAPGTGLGGDAHFDEDERWTDGSSLGINFLYAATHELGHSLGMGHSSDPNAVMYPTYGNGDPQNFKLSQDDIKGIQKLYGKRSNSRKK
With B2 the “proteolytic degradation by MMP-7 (SDS-PAGE, FIG. 4)” value (from here on “proteolytic degradation”) [6] was “A0025 showed as little degradation by MMP-7 as A0028 and A0031”, the “proteolytic degradation” value [7] was “A0025 showed as little degradation by MMP-7 as A0028 and A0031” and the “proteolytic degradation” value [8] was “A0025 showed as little degradation by MMP-7 as A0028 and A0031”. It also gave a cleaved (%) after MMP-7 treatment (SDS-PAGE) [1] of 96%, a non-cleaved (%) after MMP-7 treatment (SDS-PAGE) [1] of 4% and a cleaved (%) after MMP-7 treatment (SDS-PAGE) [2] of 5%. The non-cleaved (%) after MMP-7 treatment (SDS-PAGE) [2] was 95%, the cleaved (%) after MMP-7 treatment (SDS-PAGE) [3] was 0% and the non-cleaved (%) after MMP-7 treatment (SDS-PAGE) [3] was 100%. For the same protein, the cleaved (%) after MMP-7 treatment (SDS-PAGE) [4] was 0%, the non-cleaved (%) after MMP-7 treatment (SDS-PAGE) [4] was 100% and the cleaved (%) after MMP-7 treatment (SDS-PAGE) [5] was 63%. The non-cleaved (%) after MMP-7 treatment (SDS-PAGE) [5] was 37%.

From patent US20240409614
